Experimental data taken from the supplement of paper PMC10567573.

B1: INTS3 (parent)
chain: DLNSKGKKREFRFHPIKETVVEEP
B2: FBF1 (parent)
chain: FGDSPKAEKRQIGDQEGPRPARST

Variants of: B1
Assay: protein stability index of a GFP-peptide fusion (GPS, HEK-293T) (PSI 1-6); higher = more stable
Details: c terminus: a fixed tail appended
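Further: lentivirally expressed fusions sorted by FACS into six bins by GFP to DsRed ratio, PSI derived from sequencing read proportions per bin multiplied by bin number.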

Protein stability index of substitutions, site by site:
N3: F 1.51, W 1.8, L 2.16, I 1.88, C 1.78, H 1.88, A 1.83, E 2.9, G 2.2, M 1.77, Q 2.33, D 2.79, Y 2.54, P 1.87, V 1.53, K 2.19, T 2.4, R 2.08, S 1.76
D1: T 1.52, Q 2.02, N 1.56, S 1.55, I 1.28, G 2.23, M 1.86, Y 1.67, K 2.23, P 1.48, F 2.24, C 2.26, H 2.83, A 2.01, L 2.23, E 2.43, R 1.97, V 2.47
K5: E 2.88, D 3.04, P 2.69, M 2.05, I 2.32, C 2.05, A 2.43, G 2.54, L 2.07, N 2.56, F 1.88, R 2.25, S 2.35, H 2.48, Q 2.44
L2: S 2.89, T 2.28, N 2.96, Q 2.69, G 2.8, R 2.34, M 1.81, A 2.73, V 3.25, C 2.22, W 1.9, D 2.82, K 2.09, E 2.26, Y 1.89, P 2.74, F 2.2, H 2, I 2.36
S4: Q 1.88, T 2.49, W 1.92, R 2.23, V 2.71, A 2.42, G 2.13, N 1.99, E 3.09, K 2.08, L 2, P 2.41, Y 2.24, I 2.12, H 2.24, M 2.03, F 2.77, C 2.27, D 2.6

Variants of: B2
Assay: as above
Details: c terminus: a fixed tail appended

Protein stability index of substitutions, site by site:
G2: A 4.53, E 5.83, C 4.19, S 4.96, W 5.31, Q 4.99, K 4.72, V 1.77, P 5.29, F 4.63, N 4.16, T 4.82
D14: N 5.15, A 4.87, V 4.72, K 4.5, W 4, S 4.84, P 5.09, H 5, L 4.68, E 5.03, G 4.71
P5: V 4.13, R 4.75, H 5, D 5.72, Y 4.86, G 4.79, E 5.24, W 1.37, A 4.85, Q 4.55, C 4.63
K6: F 4.06, W 4.57, C 5.52, T 5.56, S 5.64, Y 4.8, Q 3.71, E 5.25
A21: G 5.73, K 5.23, R 4.59, D 5.5, C 5.2, H 4.93, M 4.92, Q 5.62, L 4.17, P 5.19, S 4.37, V 5.42
E8: T 3.77, D 5.48, L 3.87, N 4.53, S 4.58, Q 4.48, I 4.26
G17: D 5.24, N 5.06, F 4.57, E 5.34, K 5.02, M 4.83, S 5.46, H 4.83, R 5.1
S23: T 5.12, V 5, M 5.01, I 4.57, H 5.53, K 4.29, E 5.03, Y 5.37
K9: S 5.47, T 5.17, E 5.1, Q 5.53, D 5.52, F 4.43, H 5.22, P 5.54, I 5.23, Y 4.74, R 5.46
P18: F 4.85, M 4.71, K 5.21, Q 4.72, G 5.33, C 5.22, L 5.02, E 5.54, A 5.27, D 5.48, S 4.87
Q11: S 5.29, E 5.33, K 4.86, L 4.7, M 5.22, Y 4.45, C 5.06, G 5.34, A 5.6
S4: W 2.73, I 5.33, R 4.88, N 4.79, T 4.16, D 5.43, C 5.01
R22: F 4.49, A 5.15, M 5.72, C 5.26, L 5.38, T 4.8, K 4.92, G 4.92, W 3.86
E16: L 4.66, A 4.55, H 4.21, D 5.75, F 4.55, P 5.09, T 5.03, G 3.41, M 4.57, W 3.48
Q15: I 4.65, D 5.65, W 4.25, N 4.69, T 4.96, M 5.03, H 3.53, F 4.32, V 4.81, S 5.72
G13: Y 4.86, Q 5.45, T 5.03, E 5.34, I 4.44, K 5.24, V 4.54, L 4.17, A 4.98
T24: C 4.96, Y 4.74, A 4.91, M 4.81, E 5.3, V 4.67, W 4.34, H 4.98, D 4.52, N 5.34
R19: K 4.88, W 3.25, Y 4.21, Q 4.91, E 5.73, N 5.34, F 4.87, H 3.86
R10: H 4.63, L 4.59, D 5.29, C 5.02, E 5.63, I 5.19, T 5.58, W 3.46, Y 4.97
F1: D 5.81, L 5.36, C 4.95, A 5.87, N 5.54, W 5.69, P 5.58, Y 5.42, H 5.52, S 5.51, K 5.79, M 5.85, I 5.41, E 5.52
D3: I 5.04, A 4.79, M 4.57, L 5.13, F 5.01, T 4.99, C 4.62, N 5.06, Y 4.67, S 4.89, W 3.87, Q 5.25
A7: I 5.03, L 5.32, H 4.03, N 5.24, S 5.09, F 3.85, D 5.53, Q 5.1, R 5.15, T 4.44, Y 4
P20: D 5.07, G 3.96, L 4.46, A 5.25, T 5.08, M 4.96, W 4.58, V 4.54, Q 5.39, E 5.58, I 4.84, Y 4.91, R 5.26
I12: T 4.32, A 4.73, F 4.47, L 4.78, Y 4.24, Q 5.5, V 5.4, R 5.17, C 2.83, D 4.89, E 5.27, P 5.12, S 5.47
